Results on ten molecules are retold here after US9045527 (dated 2015).

Where no end group is shown, it is not given here.

The target of one assay is N1P1. Briefly: fluorescence anisotropy displacement; Fig 9B.
Assay [1] has as its target T1, CAL PDZ domain (CALP), wild type (UniProt Q9HD26 278-362). Briefly: fluorescence anisotropy displacement; Fig 9B.
Assay [2] has as its target T1, CAL PDZ domain (CALP), wild type. Briefly: fluorescence anisotropy displacement; Fig 9A.
The target is the same in assay [3]. Briefly: fluorescence anisotropy displacement; Fig 9A; upper bound, nonspecific Rh inhibition.
The next assay has as its target CALP-H301A mutant (UniProt Q9HD26 278-362). Briefly: fluorescence anisotropy displacement; Fig 9B.

In the case of Ac-E(dirhodium)WPTSII-OH (also: dirhodium metal complex at Glu side chain) [E(Rh)WPTSII], the Ki in the assay with N1P1 is over 50000 nM.

Turning to Ac-VQD(dirhodium)TRL-OH (also: dirhodium metal complex at Asp side-chain carboxylate) [VQD^RhTRL metallopeptide], the Ki in assay [1] was about 49000 nM.

With Ac-E(dirhodium)WPTSII-OH (also: dirhodium metal complex at Glu side chain) [E^RhWPTSII metallopeptide], in assay [1], the affinity, expressed as Ki, was 1300 nM.

In the case of Ac-EWPTSII-OH, in the assay with N1P1, the Ki is over 500000 nM.

For the molecule Ac-VQDTRL-OH, the Ki with N1P1 is 700 nM.

In the assay with N1P1, Ac-E(dirhodium)VQSTRL-OH (also: dirhodium metal complex at Glu side-chain carboxylate) [E(Rh)VQSTRL] gave an inhibition constant Ki of 32 nM.

As to Ac-QLDVTR [QLDVTR peptide (scrambled control sequence)], the Ki in assay [2] was over 500000 nM.

On to Ac-QLD(dirhodium)VTR (also: dirhodium metal complex at Asp side-chain carboxylate) [QLD^RhVTR metallopeptide], for which the Ki in assay [3] came to 10000 nM.

Ac-EVQSTRL-OH displayed a Ki with N1P1 of 710 nM.

With Ac-E(dirhodium)VQSTRL-OH (also: dirhodium metal complex at Glu side-chain carboxylate) [E^RhVQSTRL metallopeptide], the Ki with CALP-H301A mutant is 11300 nM; in assay [1] it was 430 nM.
